Data published in patent US11098105 (Zymeworks, dated 2021).
Numbering of substitutions follows the chain as printed.

B1: Control WT Rituximab 1261 (antibody, human IgG1, kappa)
heavy 1: QVQLQQPGAELVKPGASVKMSCKASGYTFTSYNMHWVKQTPGRGLEWIGAIYPGNGDTSYNQKFKGKATLTADKSSSTAYMQLSSLTSEDSAVYYCARSTYYGGDWYFNVWGAGTTVTVSAASTKGPSVFPLAPSSKSTSGGTAALGCLVKDYFPEPVTVSWNSGALTSGVHTFPAVLQSSGLYSLSSVVTVPSSSLGTQTYICNVNHKPSNTKVDKKVEPKSCDKTHTCPPCPAPELLGGPSVFLFPPKPKDTLMISRTPEVTCVVVDVSHEDPEVKFNWYVDGVEVHNAKTKPREEQYNSTYRVVSVLTVLHQDWLNGKEYKCKVSNKALPAPIEKTISKAKGQPREPQVYVYPPSRDELTKNQVSLTCLVKGFYPSDIAVEWESNGQPENNYKTTPPVLDSDGSFALVSKLTVDKSRWQQGNVFSCSVMHEALHNHYTQKSLSLSPGK
heavy 2: not shown
light: QIVLSQSPAILSASPGEKVTMTCRASSSVSYIHWFQQKPGSSPKPWIYATSNLASGVPVRFSGSGSGTSYSLTISRVEAEDAATYYCQQWTSNPPTFGGGTKLEIKRTVAAPSVFIFPPSDEQLKSGTASVVCLLNNFYPREAKVQWKVDNALQSGNSQESVTEQDSKDSTYSLSSTLTLSKADYEKHKVYACEVTHQGLSSPVTKSFNRGEC
notes: also called v1261; V1261
B2: AAC9, rituximab-based asymmetric antibody construct (antibody, human IgG1, kappa)
heavy 1: B1 heavy 1 with L238D, L239E
heavy 2: B1 heavy 1 with E237K, L238R, L239R, Y355L, T370L, K396L, T398W, A409F, V411Y
light: B1 light
B3: AAC12, rituximab-based asymmetric antibody construct (antibody, human IgG1, kappa)
heavy 1: B1 heavy 1 with L238D, L239E, K326A
heavy 2: B1 heavy 1 with E237K, L238R, L239R, K326A, Y355L, T370L, K396L, T398W, A409F, V411Y
light: B1 light
B4: AAC11, rituximab-based asymmetric antibody construct (antibody, human IgG1, kappa)
heavy 1: B1 heavy 1 with L238D, L239E, E273K
heavy 2: B1 heavy 1 with E237K, L238R, L239R, E273K, Y355L, T370L, K396L, T398W, A409F, V411Y
light: B1 light

How the values were obtained:
[1] = molecular target: CD16a(158V/V) on NK92 effector cells (UniProt P08637 17-254, limits assumed); assay: cell-based or functional assay
Human C1q = Human C1q (human, UniProt P02745 23-245; P02746 28-253; P02747 29-245); assay: cell-based or functional assay
FcγRIIaH [2] = molecular target: T1, FcγRIIaH (UniProt P12318 36-218); assay: SPR, antibody captured by goat anti-IgG, FcγR injected, equilibrium fit
T1 construct: also called 2aH; 2ah
T1 sequence (looked up): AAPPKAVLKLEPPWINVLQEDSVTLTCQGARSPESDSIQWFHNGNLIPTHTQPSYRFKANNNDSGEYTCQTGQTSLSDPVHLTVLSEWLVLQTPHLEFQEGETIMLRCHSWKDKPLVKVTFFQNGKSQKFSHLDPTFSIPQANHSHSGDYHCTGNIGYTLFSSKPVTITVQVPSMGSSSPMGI
Protocol: (§1) Affinity of FcgR to antibody Fc was measured by SPR using a ProteOn XPR36 at 25° C. with PBS containing 3.4 mM EDTA, and 0.05% Tween 20 at pH 7.4 as the running buffer. […] 40 μg/mL of purified rituximab-based antibodies were indirectly captured by injecting at 25 μL/min for 240s (resulting in approx. 500RUs capture) in the ligand direction, following a buffer injection to establish a stable baseline in the analyte direction. FcγRs were subsequently injected at 50 μL/min for 120s with a 180s dissociation phase to obtain a set of binding sensorgrams. Resultant Kd (affinity) values were determined from double-referenced sensorgrams using the Equilibrium Fit model in the Proteon Manager software. Reported values as the mean of two or three independent runs.

FcγRIIaR [3] = molecular target: T2, FcγRIIaR (UniProt P12318 36-218); assay: as above
T2 construct: also called 2aR; 2ar
T2 sequence (looked up): T1 sequence (looked up) with H132R
Protocol: as §1

FcγRIIb [4] = molecular target: T3, FcγRIIb (UniProt P31994 46-217); assay: as above
T3 construct: also called 2b; CD32b
T3 sequence (looked up): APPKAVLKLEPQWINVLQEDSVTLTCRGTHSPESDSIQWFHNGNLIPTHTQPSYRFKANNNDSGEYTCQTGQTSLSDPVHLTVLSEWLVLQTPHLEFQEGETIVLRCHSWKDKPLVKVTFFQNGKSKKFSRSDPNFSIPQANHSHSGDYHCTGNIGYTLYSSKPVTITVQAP
Protocol: as §1

FcγRIIIaF [5] = molecular target: T4, FcγRIIIaF (UniProt P08637 17-208); assay: as above
T4 construct: also called 3aF; 3af
Protocol: as §1

FcγRIIIaV = molecular target: T5, FcγRIIIaV (UniProt P08637 17-208); assay: as above
T5 construct: also called 3aV; 3av
Protocol: as §1

FcγRIIaH [6] = molecular target: T1, FcγRIIaH; assay: SPR, antibody captured by goat anti-IgG, FcγR injected
FcγRIIaR [7] = molecular target: T2, FcγRIIaR; assay: as above
FcγRIIb [8] = molecular target: T3, FcγRIIb; assay: as above
FcγRIIIaF [9] = molecular target: T4, FcγRIIIaF; assay: as above

Chain of Human C1q (P02745 23-245 limits assumed, chain 1 of 3): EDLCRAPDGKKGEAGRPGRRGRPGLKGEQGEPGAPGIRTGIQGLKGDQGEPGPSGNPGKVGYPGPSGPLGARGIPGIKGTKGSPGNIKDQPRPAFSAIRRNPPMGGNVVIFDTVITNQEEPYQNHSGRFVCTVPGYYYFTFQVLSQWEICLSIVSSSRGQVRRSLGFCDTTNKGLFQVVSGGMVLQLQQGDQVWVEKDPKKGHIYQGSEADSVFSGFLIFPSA
Chain of Human C1q (P02746 28-253 limits assumed, chain 2 of 3): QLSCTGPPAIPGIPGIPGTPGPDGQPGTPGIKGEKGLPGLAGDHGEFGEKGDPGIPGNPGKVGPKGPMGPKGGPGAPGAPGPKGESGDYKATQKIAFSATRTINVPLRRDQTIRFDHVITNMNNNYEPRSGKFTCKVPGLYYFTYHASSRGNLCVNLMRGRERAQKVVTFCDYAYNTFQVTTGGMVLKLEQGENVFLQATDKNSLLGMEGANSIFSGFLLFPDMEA
Chain of Human C1q (P02747 29-245 limits assumed, chain 3 of 3): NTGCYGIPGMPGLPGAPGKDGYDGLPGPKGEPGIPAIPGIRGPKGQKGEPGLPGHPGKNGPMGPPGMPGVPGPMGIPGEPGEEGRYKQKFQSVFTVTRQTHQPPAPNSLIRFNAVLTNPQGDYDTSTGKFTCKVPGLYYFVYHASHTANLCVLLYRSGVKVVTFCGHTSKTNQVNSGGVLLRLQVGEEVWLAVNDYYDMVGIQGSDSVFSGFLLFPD

Binder	ADCC EC50 [nM], Daudi cells, NK92/CD16a(158V/V) effector cells [1] [nM]	ADCC Maximum Lysis, Daudi cells, NK92/CD16a(158V/V) effector cells [1] [% cell lysis]	CDC EC50 [nM], Daudi cells, 10% normal human serum (Human C1q) [nM]	CDC Maximum Lysis, Daudi cells, 10% normal human serum (Human C1q) [% cell lysis]	SPR Ka ratio with respect to wild-type trastuzumab (FcγRIIaH [2])	SPR Ka ratio with respect to wild-type trastuzumab (FcγRIIaR [3])	SPR Ka ratio with respect to wild-type trastuzumab (FcγRIIb [4])	SPR Ka ratio with respect to wild-type trastuzumab (FcγRIIIaF [5])	SPR Ka ratio with respect to wild-type trastuzumab (FcγRIIIaV)	binding result (FcγRIIaH [6])	binding result (FcγRIIaR [7])	binding result (FcγRIIb [8])	binding result (FcγRIIIaF [9])
B1	0.1	66	2.9	96	1.87	1.47	1.85	1.36	1.34	–	–	–	–
B2	–	–	47.9	68	–	–	–	–	0.08	no binding	no binding	no binding	no binding
B3	23.1	20	54.6	67	–	–	–	–	0.08	no binding	no binding	no binding	no binding
B4	> 100	–	51.6	63	–	–	–	–	–	no binding	no binding	no binding	no binding
